Test results reported in the supplement of paper PMC9732359.
± gives the uncertainty stated by the source.

Assay: protein stability index of a GFP-peptide fusion (yeast GPS) (PSI 1-4); higher = more stable; sorted into four equal gates, so the index is relative within each strain
In short: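 The protein stability index of a peptide was calculated by multiplying its read frequency in each gate by that gate's number and adding the products. The peptides were tiled 17-residue stretches of yeast proteins, fused downstream of GFP on a Cherry-expressing plasmid and carried in yeast as a pooled library. Mid-log cultures in leucine-free medium were sorted into four equal gates by GFP/Cherry ratio, and each gate's plasmids were PCR-amplified and Illumina-sequenced.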

EQLKEQMEDMEESINEF [SMC4]
protein stability index (doa10∆): 3.17 ± 0.21
protein stability index (pdr5∆): 3.2 ± 0.1
protein stability index (san1∆): 3.17 ± 0.048

QRETMKERKLRENIAML [SMC1]
protein stability index (doa10∆): 3.42 ± 0.24
protein stability index (pdr5∆): 3.01 ± 0.19
protein stability index (san1∆): 3.04 ± 0.12
protein stability index (ubr1∆): 3.42 ± 0.066

VKPLESSAKRSKNTAVS [SRP72]
protein stability index (doa10∆): 2.7 ± 0.073
protein stability index (pdr5∆): 2.92 ± 0.11
protein stability index (san1∆): 2.21 ± 0.096
protein stability index (ubr1∆): 2.63 ± 0.05

NLNAFVDFSKYNTNFNL [SRP72]
protein stability index (doa10∆): 3.19 ± 0.12
protein stability index (pdr5∆): 2.81 ± 0.12
protein stability index (san1∆): 3.09 ± 0.048
protein stability index (ubr1∆): 2.17 ± 0.08

TEVERAKSLLKLQLGQL [COR1]
protein stability index (doa10∆): 1.42 ± 0.042
protein stability index (pdr5∆): 1.31 ± 0.048
protein stability index (san1∆): 1.36 ± 0.065
protein stability index (ubr1∆): 1.37 ± 0.037

NWRGREHWKVRNFKKAN [BRN1]
protein stability index (doa10∆): 3.43 ± 0.12
protein stability index (pdr5∆): 3.36 ± 0.12
protein stability index (san1∆): 3.52 ± 0.075
protein stability index (ubr1∆): 3.49 ± 0.1

DEANIEIDPLTGMPISN [BRN1]
protein stability index (pdr5∆): 2.65 ± 0.25
protein stability index (ubr1∆): 2.42 ± 0.27

RFISDLLWLVLIHPENF [SWI1]
protein stability index (doa10∆): 1.82 ± 0.081
protein stability index (pdr5∆): 1.28 ± 0.092
protein stability index (san1∆): 1.86 ± 0.2
protein stability index (ubr1∆): 2.59 ± 0.18

GKKVLNKNQLLKRNRIR [POP1]
protein stability index (doa10∆): 2.88 ± 0.068
protein stability index (pdr5∆): 3.08 ± 0.055
protein stability index (san1∆): 2.94 ± 0.064
protein stability index (ubr1∆): 3.05 ± 0.053

GVEEVEGEYELTEAVED [RPL5]
protein stability index (doa10∆): 3.36 ± 0.11
protein stability index (pdr5∆): 3.45 ± 0.13
protein stability index (san1∆): 3.24 ± 0.14
protein stability index (ubr1∆): 3.24 ± 0.2

DVTAIQTWSYLSLYSTD [ECM29]
protein stability index (doa10∆): 1.52 ± 0.038
protein stability index (pdr5∆): 1.91 ± 0.036
protein stability index (san1∆): 1.9 ± 0.055
protein stability index (ubr1∆): 1.92 ± 0.036

VYGEGTSRVTGILLLDS [YJL039C/NUP192]
protein stability index (doa10∆): 3.19 ± 0.19
protein stability index (pdr5∆): 3.31 ± 0.091
protein stability index (ubr1∆): 3.44 ± 0.091

KTSCVVEKRIGKIVSQR [RGR1]
protein stability index (doa10∆): 2.76 ± 0.061
protein stability index (pdr5∆): 2.77 ± 0.048
protein stability index (san1∆): 3.12 ± 0.045
protein stability index (ubr1∆): 2.85 ± 0.036

DTPEGEACGLVKNLALM [RET1]
protein stability index (doa10∆): 2.14 ± 0.098
protein stability index (pdr5∆): 2.01 ± 0.13
protein stability index (san1∆): 3.21 ± 0.1
protein stability index (ubr1∆): 1.71 ± 0.28

ESKLIPQENDLESKMSE [SMC3]
protein stability index (doa10∆): 2.81 ± 0.065
protein stability index (pdr5∆): 3.05 ± 0.065
protein stability index (san1∆): 3.15 ± 0.059
protein stability index (ubr1∆): 3.01 ± 0.054

RRIKEAEENLKKRIRLP [YIL149C/MLP2]
protein stability index (doa10∆): 2.26 ± 0.08
protein stability index (pdr5∆): 2.23 ± 0.067
protein stability index (san1∆): 1.88 ± 0.12
protein stability index (ubr1∆): 2.02 ± 0.07

QAIITERLVEFSNVNEL [YIL149C/MLP2]
protein stability index (doa10∆): 2.72 ± 0.19
protein stability index (pdr5∆): 3.38 ± 0.1
protein stability index (san1∆): 3.58 ± 0.15
protein stability index (ubr1∆): 3.31 ± 0.12

IQELRKLLKSLLLNYLE [MED7]
protein stability index (doa10∆): 1.71 ± 0.056
protein stability index (pdr5∆): 1.24 ± 0.069
protein stability index (san1∆): 1.12 ± 0.12
protein stability index (ubr1∆): 1.04 ± 0.1

PLPTPFKVDDNVDFPSA [RPN2]
protein stability index (doa10∆): 2.94 ± 0.054
protein stability index (pdr5∆): 2.75 ± 0.043
protein stability index (san1∆): 2.6 ± 0.074
protein stability index (ubr1∆): 2.63 ± 0.052

EYNRLKVQDAIEEEIFD [LIN1]
protein stability index (doa10∆): 2.83 ± 0.057
protein stability index (pdr5∆): 2.31 ± 0.05
protein stability index (san1∆): 2.85 ± 0.057
protein stability index (ubr1∆): 2.93 ± 0.055

NAGTNDNSFNELTDNMS [MCD1]
protein stability index (doa10∆): 3.01 ± 0.082
protein stability index (pdr5∆): 3.13 ± 0.076
protein stability index (san1∆): 3.15 ± 0.042
protein stability index (ubr1∆): 3.3 ± 0.05

KVWLDPNETSEIAQANS [RPL19A]
protein stability index (doa10∆): 3.16 ± 0.23
protein stability index (pdr5∆): 3.69 ± 0.24
protein stability index (ubr1∆): 3.04 ± 0.29

QEAFKIYQHLASHNEKD [SRP72]
protein stability index (doa10∆): 1.89 ± 0.082
protein stability index (pdr5∆): 3.08 ± 0.1
protein stability index (san1∆): 2.93 ± 0.15
protein stability index (ubr1∆): 2.89 ± 0.1

DSEKHIDFAPTSPFGGA [RPS9A]
protein stability index (doa10∆): 2.6 ± 0.06
protein stability index (pdr5∆): 2.65 ± 0.06
protein stability index (san1∆): 2.69 ± 0.068
protein stability index (ubr1∆): 2.68 ± 0.041

QSESRQKRQLHDISKTE [SNU114]
protein stability index (doa10∆): 3 ± 0.096
protein stability index (pdr5∆): 2.87 ± 0.071
protein stability index (san1∆): 3.13 ± 0.073
protein stability index (ubr1∆): 3.04 ± 0.046

DIINAVNEIMYKCTAAM [MTW1]
protein stability index (doa10∆): 2.73 ± 0.089
protein stability index (pdr5∆): 2.77 ± 0.1
protein stability index (san1∆): 2.84 ± 0.11
protein stability index (ubr1∆): 2.33 ± 0.072

REKRDRTHFKRMRFPPF [PRP8]
protein stability index (doa10∆): 2.27 ± 0.05
protein stability index (pdr5∆): 2.64 ± 0.069
protein stability index (san1∆): 2.22 ± 0.098
protein stability index (ubr1∆): 2.2 ± 0.047

NMGSLLGLCLVIQIVTG [COB]
protein stability index (doa10∆): 2.67 ± 0.06
protein stability index (pdr5∆): 2.58 ± 0.053
protein stability index (san1∆): 2.59 ± 0.061
protein stability index (ubr1∆): 3 ± 0.034

EAKSFQDEAELVEEKTP [RPC82]
protein stability index (doa10∆): 3.53 ± 0.12
protein stability index (pdr5∆): 3.46 ± 0.14
protein stability index (san1∆): 3.51 ± 0.14
protein stability index (ubr1∆): 3.5 ± 0.1

VTKITDMLLHKYYIVSS [SRB8]
protein stability index (doa10∆): 1.45 ± 0.076
protein stability index (pdr5∆): 1.14 ± 0.068
protein stability index (san1∆): 1.65 ± 0.15
protein stability index (ubr1∆): 1.57 ± 0.077

AEFILKNRSTIFWGIRL [BRR2]
protein stability index (doa10∆): 2.73 ± 0.056
protein stability index (pdr5∆): 1.93 ± 0.063
protein stability index (san1∆): 1.52 ± 0.089
protein stability index (ubr1∆): 1.77 ± 0.048

DFLRYINIKYLRLDGHT [SNF2]
protein stability index (doa10∆): 2.5 ± 0.071
protein stability index (pdr5∆): 1.32 ± 0.062
protein stability index (san1∆): 1.4 ± 0.14
protein stability index (ubr1∆): 1.65 ± 0.06

KFNELVKLMKNITDYET [BRR2]
protein stability index (doa10∆): 1.11 ± 0.042
protein stability index (pdr5∆): 1.21 ± 0.06
protein stability index (san1∆): 1.21 ± 0.14
protein stability index (ubr1∆): 1.3 ± 0.056

EEQLDLLSAILDPSKSK [MED11]
protein stability index (doa10∆): 3.09 ± 0.099
protein stability index (pdr5∆): 3.18 ± 0.12
protein stability index (san1∆): 3.32 ± 0.11
protein stability index (ubr1∆): 3.64 ± 0.2

GKAATAKETHTKPSETP [YOR098C/NUP1]
protein stability index (doa10∆): 2.57 ± 0.098
protein stability index (pdr5∆): 2.84 ± 0.094
protein stability index (san1∆): 2.76 ± 0.077
protein stability index (ubr1∆): 2.37 ± 0.091

SVLISIPLDNYDDFIYL [PCI8]
protein stability index (doa10∆): 1.25 ± 0.048
protein stability index (pdr5∆): 1.75 ± 0.055
protein stability index (san1∆): 1.28 ± 0.11
protein stability index (ubr1∆): 1.52 ± 0.042

GGDTCSSDGALCMDSSY [POP1]
protein stability index (doa10∆): 2.24 ± 0.054
protein stability index (pdr5∆): 2.54 ± 0.051
protein stability index (san1∆): 1.83 ± 0.082
protein stability index (ubr1∆): 2.27 ± 0.036

ESKSDDNSATSYYELET [RRI1]
protein stability index (doa10∆): 3.25 ± 0.084
protein stability index (pdr5∆): 3.24 ± 0.059
protein stability index (san1∆): 3.13 ± 0.067
protein stability index (ubr1∆): 3.19 ± 0.057

AYLLLVQGGNAAPSAAD [RPP2B]
protein stability index (doa10∆): 1.84 ± 0.05
protein stability index (pdr5∆): 1.98 ± 0.038
protein stability index (san1∆): 1.96 ± 0.062
protein stability index (ubr1∆): 2.45 ± 0.061

EEDFYTVVGNASFGKNL [DSN1]
protein stability index (doa10∆): 1.99 ± 0.12
protein stability index (pdr5∆): 1.38 ± 0.25
protein stability index (san1∆): 2.9 ± 0.23
protein stability index (ubr1∆): 3.12 ± 0.14

QIYTQRAYMRPLGVILT [SCL1]
protein stability index (doa10∆): 1.8 ± 0.053
protein stability index (pdr5∆): 1.38 ± 0.06
protein stability index (san1∆): 1.43 ± 0.12
protein stability index (ubr1∆): 1.64 ± 0.036

APRQEISEEETTVKPLF [YAR002W/NUP60]
protein stability index (doa10∆): 3.22 ± 0.11
protein stability index (pdr5∆): 3.22 ± 0.11
protein stability index (san1∆): 3.23 ± 0.067
protein stability index (ubr1∆): 3.56 ± 0.17

KLSESLDTRKELWRKEQ [SMC3]
protein stability index (doa10∆): 1.29 ± 0.077
protein stability index (pdr5∆): 1.75 ± 0.1
protein stability index (san1∆): 3.19 ± 0.19
protein stability index (ubr1∆): 1.82 ± 0.12

LMISPKDEETTEKARLI [RRI2]
protein stability index (doa10∆): 2.8 ± 0.15
protein stability index (pdr5∆): 3.27 ± 0.18
protein stability index (ubr1∆): 3.04 ± 0.14

EQISNNSNQQQNPKLFQ [SIN4]
protein stability index (doa10∆): 2.96 ± 0.062
protein stability index (pdr5∆): 2.67 ± 0.045
protein stability index (san1∆): 3.13 ± 0.062
protein stability index (ubr1∆): 2.95 ± 0.052

APLVLLSALDHYERTQT [RPN8]
protein stability index (doa10∆): 2.45 ± 0.051
protein stability index (pdr5∆): 2.45 ± 0.053
protein stability index (san1∆): 2.39 ± 0.057
protein stability index (ubr1∆): 2.42 ± 0.039

YHLHPTFANPNRTFTDP [TAF14]
protein stability index (doa10∆): 1.94 ± 0.068
protein stability index (pdr5∆): 2.02 ± 0.055
protein stability index (san1∆): 2.21 ± 0.1
protein stability index (ubr1∆): 1.7 ± 0.036

NTLRKCYPQFAERDSQG [UBP6]
protein stability index (doa10∆): 2.92 ± 0.17
protein stability index (pdr5∆): 2.65 ± 0.15
protein stability index (san1∆): 2.79 ± 0.15
protein stability index (ubr1∆): 2.78 ± 0.12

KLVLAARIIAAIPNPED [RPS0A]
protein stability index (doa10∆): 1.71 ± 0.074
protein stability index (pdr5∆): 2.11 ± 0.11
protein stability index (san1∆): 2.31 ± 0.099
protein stability index (ubr1∆): 2.5 ± 0.14

AVVGNNMLLDPAANESE [RRP42]
protein stability index (doa10∆): 1.47 ± 0.083
protein stability index (pdr5∆): 1.81 ± 0.073
protein stability index (san1∆): 2.48 ± 0.093
protein stability index (ubr1∆): 2.12 ± 0.048

DQNNKKMVGLRGFNNQI [SNF2]
protein stability index (doa10∆): 3.35 ± 0.065
protein stability index (pdr5∆): 3.22 ± 0.072
protein stability index (san1∆): 3.2 ± 0.072
protein stability index (ubr1∆): 3.37 ± 0.044

VDVELITSINVENDTFI [FAS2]
protein stability index (doa10∆): 3.4 ± 0.1
protein stability index (pdr5∆): 3.37 ± 0.069
protein stability index (san1∆): 3.09 ± 0.086
protein stability index (ubr1∆): 3.32 ± 0.072
